For assay [1], the target named is T1, Histone H4 (X. laevis), in the nucleosome core particle (X. laevis, UniProt P62799 1-103).
T1 construct: histone H4, X. laevis; Stood in the crystal as part of the nucleosome m12; source: bacterial expression vector
In words: crystal structure; Orc1 BAH L79I mixed with nucleosome 3:1, complex purified by gel filtration; sitting drop at 4 °C, 6 mM Na-cacodylate pH 6.0, 0.4 mM spermine-HCl, 2 mM MgCl2, 1.75% PEG 400; 3.3 Å. Conditions: both partners purified. (In general: In gel filtration, larger molecules generally elute earlier.)

Assay [2] concerns the target Histone H2B (X. laevis), in the nucleosome core particle (X. laevis, UniProt P02281 1-126). The assay is described as above. Particulars: both partners purified.

B1: Orc1 BAH L79I mutant (domain or fragment)
chain: MAKTLKDLQGWEIITTDEQGNIIDGGQKRLRRRGAKTEHYLKRSSDGIKLGRGDSVVMHNEAAGTYSVYMIQELRLNTINNVVELWALTYLRWFEVNPLAHYRQFNPDANILNRPLNYYNKLFSETANKNELYLTAELAELQLFNFIRVANVMDGSKWEVLKGNVDPERDFTVRYICEPTGEKFVDINIEDVKAYIKKVEPREAQEYLKDLTLP
modifications: N-alpha-acetyl on A2 (acetylated N-terminus visible in the structure)
notes: Orc1 BAH domain, S. cerevisiae, amino acids 1-214, L79I; Used for the crystal structure and in EMSA; source: SF9 insect cells (baculovirus), purified (Ni-NTA, SP-Sepharose FF, Superdex-200)
With B1, the binding result in assay [1] and in assay [2] was “binds” each time.

The record behind these values is article PMC6602975, “Structure and function of the Orc1 BAH-nucleosome complex” (Nature Communications, 2019).
